The data set concerns the molecule itself. Nature of the data set: cryo-EM structure; single-particle cryo-EM of protein purified in GDN micelles (150 mM NaCl, 20 mM HEPES pH 7.4); wild type apo or with NH4Cl (outward-facing), R125H mutant (inward-facing; pH not named for it).

The term stoichiometry N denotes the number of molecules, sites or subunits per partner or assembly.

B1: BTR1 (SLC4A11), full-length human, wild type (natural protein, UniProt Q8NBS3-1 1-891, looked up)
chain: MSQVGGRGDRCTQEVQGLVHGAGDLSASLAENSPTMSQNGYFEDSSYYKCDTDDTFEAREEILGDEAFDTANSSIVSGESIRFFVNVNLEMQATNTENEATSGGCVLLHTSRKYLKLKNFKEEIRAHRDLDGFLAQASIVLNETATSLDNVLRTMLRRFARDPDNNEPNCNLDLLMAMLFTDAGAPMRGKVHLLSDTIQGVTATVTGVRYQQSWLCIICTMKALQKRHVCISRLVRPQNWGENSCEVRFVILVLAPPKMKSTKTAMEVARTFATMFSDIAFRQKLLETRTEEEFKEALVHQRQLLTMVSHGPVAPRTKERSTVSLPAHRHPEPPKCKDFVPFGKGIREDIARRFPLYPLDFTDGIIGKNKAVGKYITTTLFLYFACLLPTIAFGSLNDENTDGAIDVQKTIAGQSIGGLLYALFSGQPLVILLTTAPLALYIQVIRVICDDYDLDFNSFYAWTGLWNSFFLALYAFFNLSLVMSLFKRSTEEIIALFISITFVLDAVKGTVKIFWKYYYGHYLDDYHTKRTSSLVSLSGLGASLNASLHTALNASFLASPTELPSATHSGQATAVLSLLIMLGTLWLGYTLYQFKKSPYLHPCVREILSDCALPIAVLAFSLISSHGFREIEMSKFRYNPSESPFAMAQIQSLSLRAVSGAMGLGFLLSMLFFIEQNLVAALVNAPENRLVKGTAYHWDLLLLAIINTGLSLFGLPWIHAAYPHSPLHVRALALVEERVENGHIYDTIVNVKETRLTSLGASVLVGLSLLLLPVPLQWIPKPVLYGLFLYIALTSLDGNQLVQRVALLLKEQTAYPPTHYIRRVPQRKIHYFTGLQVLQLLLLCAFGMSSLPYMKMIFPLIMIAMIPIRYILLPRIIEAKYLDVMDAEHRP
notes: human BTR1 (SLC4A11), full length, residues 1-891 (NTD 1-307, TMD 336-891), amplified from human HEK293 cDNA; GFP and His tag removed with TEV protease before gel filtration; Residues 1-103, 308-335 and 888-891 were not built in the model; also called NaBC1; bicarbonate transporter-related protein-1; source: HEK293F cells, baculovirus (BacMam) infection, purified (Ni-NTA, TEV cleavage, gel …)
Take B1: the “stoichiometry N” value is 2.

B2: BTR1 (SLC4A11) R125H, full-length human, pathogenic mutant (natural protein, UniProt Q8NBS3-1 1-891, looked up)
chain: MSQVGGRGDRCTQEVQGLVHGAGDLSASLAENSPTMSQNGYFEDSSYYKCDTDDTFEAREEILGDEAFDTANSSIVSGESIRFFVNVNLEMQATNTENEATSGGCVLLHTSRKYLKLKNFKEEIHAHRDLDGFLAQASIVLNETATSLDNVLRTMLRRFARDPDNNEPNCNLDLLMAMLFTDAGAPMRGKVHLLSDTIQGVTATVTGVRYQQSWLCIICTMKALQKRHVCISRLVRPQNWGENSCEVRFVILVLAPPKMKSTKTAMEVARTFATMFSDIAFRQKLLETRTEEEFKEALVHQRQLLTMVSHGPVAPRTKERSTVSLPAHRHPEPPKCKDFVPFGKGIREDIARRFPLYPLDFTDGIIGKNKAVGKYITTTLFLYFACLLPTIAFGSLNDENTDGAIDVQKTIAGQSIGGLLYALFSGQPLVILLTTAPLALYIQVIRVICDDYDLDFNSFYAWTGLWNSFFLALYAFFNLSLVMSLFKRSTEEIIALFISITFVLDAVKGTVKIFWKYYYGHYLDDYHTKRTSSLVSLSGLGASLNASLHTALNASFLASPTELPSATHSGQATAVLSLLIMLGTLWLGYTLYQFKKSPYLHPCVREILSDCALPIAVLAFSLISSHGFREIEMSKFRYNPSESPFAMAQIQSLSLRAVSGAMGLGFLLSMLFFIEQNLVAALVNAPENRLVKGTAYHWDLLLLAIINTGLSLFGLPWIHAAYPHSPLHVRALALVEERVENGHIYDTIVNVKETRLTSLGASVLVGLSLLLLPVPLQWIPKPVLYGLFLYIALTSLDGNQLVQRVALLLKEQTAYPPTHYIRRVPQRKIHYFTGLQVLQLLLLCAFGMSSLPYMKMIFPLIMIAMIPIRYILLPRIIEAKYLDVMDAEHRP
notes: human BTR1 (SLC4A11), full length, with the disease-associated mutation R125H made in the PBM-SLC4A11 plasmid; GFP and His tag removed with TEV protease before gel filtration; also called BTR1-R125H; BTR1_(IF/R125H); source: HEK293F cells, baculovirus (BacMam) infection, purified (Ni-NTA, TEV cleavage, gel filtration) in GDN micelles; not shown: GFP, C-terminal, cleaved; His8, C-terminal, cleaved
As to B2, the “stoichiometry N” value turned out to be 2.

The values above are taken from PMC10547724, “Structural insights into the conformational changes of BTR1/SLC4A11 in complex with PIP2” (Nature Communications, 2023).
